Measurements taken from the RNAGym collection of RNA variant scans (doi:10.7554/elife.90254).

B1: OR4K15 (parent)
chain: GUUAACGGUCAUAGGCCAUGGAAACUAGGAGCACCAUUUCGCUGCCAGUGAAGAAAUGAACAAAGAAAAUCUGGGCCAGGCAGGCAUCAAAAGAAAUAGUCUUGCGCUCAACCAGAAAGUCUGUAAUCAUUUUAAGGGUA

Variants of: B1
Experiment: self-cleavage, relative activity (ratio to wild type); higher = more cleavage; in vitro, sequencing; the parent is a self-cleaving ribozyme

Point of comparison: A89G G115U, self-cleavage 0.11. Against it:
- U87A U103C — higher, 0.68
- A89C A117U — higher, 0.98
- U87A U108C — lower, 0.02
- U87A A135G — higher, 2.03
- U87C U122A — higher, 1.32
- A89G A95U — higher, 1.95
- C88U U108C — lower, 0.01
- U87C A125U — higher, 1.74
- U87C A125G — higher, 0.41
- U87C U108C — lower, 0.01
- U87C U108A — lower, 0.01
- A89G A135G — higher, 1.68
- A89G A135U — higher, 1.15
- A89G U122A — higher, 1
- U87A A96U — higher, 1.68
- U87A A96G — higher, 2.29
- U87C U132A — higher, 0.81
- A89G A90U — higher, 1.39
- A89U A126U — higher, 0.65
- A86U U102C — higher, 2.39
- A86U U132C — higher, 1.71
- A89U A125G — higher, 0.77
- A89C U120C — higher, 0.75
- A89C U108C — lower, 0.01
- A89G A118U — higher, 0.54
- A89G A118G — higher, 1.18
- U87G A111G — lower, 0.02
- U87A U100G — higher, 2.13
- U87C A89U — higher, 0.65
- A86U A110C — higher, 0.36
- A86U A110G — lower, 0.09
- A89G U139G — higher, 1.4
- U87A U130C — higher, 1.36
- U87G A91G — the same, 0.11
- U87G U100A — lower, 0.06
- A86U A114G — higher, 1.22
- A86U A114U — the same, 0.11
- A86U A125G — higher, 0.95
- A89C U122C — higher, 1.75
- U87A A91G — higher, 1.33
- A86U A91G — higher, 1.93
- A86U A118G — higher, 1.33
- U87C U127C — higher, 0.64
- U87C U127A — higher, 2.12
- A89G U130C — higher, 1.79
- U87C C128U — higher, 0.76
- U87C A134G — higher, 1.63
- A86G U132C — higher, 1.16
- A89G A91G — higher, 1.49
- A86U A92G — higher, 1.46
- A89G U127C — higher, 1.03
- U87A U131C — higher, 1.67
- U87C A135G — higher, 1.81
- A89G A114G — higher, 0.36
- A89G A114U — higher, 0.12
- U87C A116G — higher, 0.55
- U87C A116C — lower, 0.06
- C88U U120C — higher, 1.46
- A89G A110U — higher, 0.77
- U87A U102C — higher, 1.71
- U87C C105A — lower, 0.02
- U87C C105U — higher, 0.13
- A89G C107U — lower, 0
- A89G A140C — higher, 0.99
- A89G A140U — higher, 1.23
- A89G A140G — higher, 1.55
- A89G G119C — higher, 1.62
- A86U G93U — higher, 2.01
- A86U A95G — higher, 2.02
- A89U A118U — higher, 0.73
- A86U A117G — higher, 2.1
- A89C G106C — lower, 0
- A86U G123A — higher, 1.59
- U87G U127C — higher, 0.22
- C88A — higher, 1.78
- C88U — higher, 1.83
- A86G U127C — higher, 1.22
- C88U U139A — higher, 1.67
- A86U A135U — higher, 2.32
- A86U A135G — higher, 2.44
- U87C A98U — higher, 1.9
- U87C A98G — higher, 0.74
- A89C A91G — higher, 0.72
- A89G A116C — higher, 0.22
- C88U A111G — lower, 0.04
- A86U C109U — higher, 0.6
- A89G U103G — lower, 0.02
- U87C C112G — lower, 0.02
- U87C C112U — lower, 0.02
- A86U A90G — higher, 1.3
- A89C A118G — higher, 0.51
- U87A A89G — higher, 0.91
- A89U A91U — higher, 1.24
- U87C C88A — higher, 0.75
- A89G A98G — higher, 0.67
- A86U U131C — higher, 1.77
- U87A A114G — lower, 0.08
- U87A A114U — lower, 0.1
- U87A A114C — lower, 0.05
- A89C A90G — higher, 0.73
- A89G G106A — lower, 0.01
- A89C C107U — lower, 0.04
- C88U U127C — higher, 2.09
- A89G U102C — higher, 1.68
- C88U A140G — higher, 2.02
- A89U A111G — lower, 0.03
- A89U A111U — higher, 0.13
- A89G A129G — higher, 1.06
- U87G A126G — higher, 0.48
- A89C A116G — higher, 0.19
- A89C A116U — higher, 0.32
- U87C U133A — higher, 0.9
- U87C U133C — higher, 1.4
- A86U U133C — higher, 2.71
- U87C U130C — higher, 0.55
- A89G A134G — higher, 1.64
- U87C A111U — lower, 0.07
- U87G A95G — higher, 1.11
- A89U A96G — higher, 1.73
- A89C U132A — higher, 1.97
- U87A U132C — higher, 1.35
- A86U U103C — higher, 1.31
- A86U A96G — higher, 1.68
- A86U A89G — higher, 2.16
- A89G C105U — lower, 0.07
- U87C A114U — lower, 0.09
- A89G A111G — lower, 0.02
- U87C A92G — higher, 0.43
- U87C A110G — lower, 0.1
- U87C A110C — higher, 0.12
- U87G U132C — higher, 0.88
- A86U U139G — higher, 1.57
- C88G A129G — higher, 2.37
- U87C G115U — higher, 0.29
- U87A G106C — lower, 0.01
- A89U A90G — higher, 1.48
- A89G C101U — higher, 0.29
- U87A A94U — higher, 1.52
- A89U C121U — higher, 2.24
- A89G A117G — higher, 1.73
- U87C C113U — higher, 0.12
- U87C C113A — lower, 0.01
- A89G U100C — higher, 2
- U87C A91G — higher, 1.06
- U87C A91U — higher, 1.35
- U87C U97C — higher, 1.63
- A89U A92G — higher, 2.32
- A89G U124A — higher, 1.38
- U87A C88U — higher, 1.17
- A89G A92U — higher, 1.57
- A89G A92G — higher, 1.02
- U87C U139C — higher, 0.35
- A89G U131C — higher, 0.59
- A89U C109G — lower, 0.01
- A86U A116G — higher, 0.59
- U87C A118C — higher, 0.4
- A89G G123A — higher, 1.52
- A86G U130A — higher, 1.55
- A86G U130C — higher, 1.2
- A89G A126G — higher, 0.6
- A89U A98G — higher, 0.66
- A89G C113G — lower, 0.01
- A86U C105U — higher, 0.27
- U87C A140G — higher, 1.49
- A89G A125G — higher, 0.16
- U87C U102C — higher, 2.08
